Tests used:
PRC2 complex = assay: Co-immunoprecipitation with PRC2 complex (EZH2) in transfected HEK293T cells; format: binding; settings: anti-FLAG co-IP, HEK293T extracts; EZH2 as PRC2 marker
Experimental: (§1) HEK293T cells were transfected with vectors encoding FLAG-BCL11B ([54]), FLAG-BCL11B p.R3S or Myc-SIRT1 using the calcium phosphate method. Transfected cells were harvested in ice-cold phosphate-buffered saline (PBS) 48 h after transfection. Cell suspensions were centrifuged at 2000g for 5 min, followed by lysis under native conditions in buffer containing 20 mM HEPES, pH 7.4, 250 mM NaCl, 2 mM EDTA, 10% glycerol, 0.5% NP-40, 0.1 mM PMSF, 1 μg/mL pepstatin A, 5 μg/mL leupeptin, 10 μM E64, 25 mM NaF, 5 mM […] and 10 mMN-ethylmaleimide. Cells were incubated on ice for 30 min with vortexing every 5 min, followed by sonication on ice to complete lysis and shear DNA. The lysate was cleared by centrifugation, and BCL11B was immunoprecipitated from native extracts with anti-FLAG antibody (Sigma F4042), as previously described ([54]). […] Fluorescent signal was recorded on an Odyssey dual-channel near-infrared imager (LI-COR) and analysed with manufacturer-supplied software (Image Studio, version 2.1).

NuRD complex = assay: Co-immunoprecipitation with NuRD complex (MTA2, HDAC2) in transfected HEK293T cells; format: binding; settings: anti-FLAG co-IP, HEK293T extracts; MTA2 and HDAC2 as NuRD markers
Experimental: as §1

SIRT1 = assay: Co-immunoprecipitation with SIRT1 in transfected HEK293T cells; format: binding; settings: anti-FLAG co-IP, HEK293T extracts; Myc-SIRT1
Experimental: as §1

HEK293T cells = assay: Immunocytochemistry (expression and nuclear localization) in HEK293T cells; format: cell-based; settings: 48 h after transfection, anti-BCL11B and DAPI
Experimental: HEK293T cells were grown on 0.1% gelatin-coated glass coverslips in 24-well plates seeded at 25 000 cells/well for 24 h prior to transfection with vectors encoding FLAG-BCL11B or FLAG-BCL11B p.R3S. Forty-eight hours after transfection, cells were washed twice with PBS, fixed in 4% paraformaldehyde in PBS for 10 min at room temperature, permeabilized with 0.3% Triton X-100/PBS for 10 min and washed twice with 0.1% Tween/PBS. The fixed and permeabilized cells were then prepared for immunocytochemistry by blocking for 1 h in 10% foetal bovine serum (FBS) in PBS, incubating for 4 h with rat anti-BCL11B monoclonal antibody (Abcam ab18465, 0.25 μg/ml) in 10% FBS/PBS, then incubating for 1.5 h with an anti-rat Cy3-conjugated secondary antibody (Jackson ImmunoResearch Laboratories, 1:500 dilution), followed by a final incubation in 10 μg/ml DAPI in PBS for 10 min. Cells were washed twice with 0.1% Tween/PBS between each immunocytochemistry step, and all incubations were conducted at room temperature. Cells were then washed twice with deionized water, followed by step-wise dehydration with 70% ethanol, 100% ethanol and xylene. Coverslips were then mounted on glass slides with DPX (VWR), dried overnight and stored at 4°C in the dark. Fluoromicrographs were obtained using a Zeiss microscope with appropriate filters and a 63× oil-immersion objective. […]

Molecule	interaction with PRC2 complex (PRC2 complex)	interaction with NuRD complex (NuRD complex)	interaction with SIRT1 (SIRT1)	expression and nuclear localization (HEK293T cells)
BCL11B: FLAG-BCL11B, wild-type protein expressed in transfected HEK293T cells (protein, left off: FLAG, end not stated, kept, FLAG-BCL11B, wild-type protein expressed in transfected HEK293T cells) MSRRKQGNPQHLSQRELITPEADHVEAAILEEDEGLEIEEPSGLGLMVGGPDPDLLTCGQCQMNFPLGDILVFIEHKRKQCGGSLGACYDKALDKDSPPPSSRSELRKVSEPVEIGIQVTPDEDDHLLSPTKGICPKQENIAGPCRPAQLPAVAPIAASSHPHSSVITSPLRALGALPPCLPLPCCSARPVSGDGTQGEGQTEAPFGCQCQLSGKDEPSSYICTTCKQPFNSAWFLLQHAQNTHGFRIYLEPGPASSSLTPRLTIPPPLGPEAVAQSPLMNFLGDSNPFNLLRMTGPILRDHPGFGEGRLPGTPPLFSPPPRHHLDPHRLSAEEMGLVAQHPSAFDRVMRLNPMAIDSPAMDFSRRLRELAGNSSTPPPVSPGRGNPMHRLLNPFQPSPKSPFLSTPPLPPMPPGGTPPPQPPAKSKSCEFCGKTFKFQSNLIVHRRSHTGEKPYKCQLCDHACSQASKLKRHMKTHMHKAGSLAGRSDDGLSAASSPEPGTSELAGEGLKAADGDFRHHESDPSLGHEPEEEDEEEEEEEEELLLENESRPESSFSMDSELSRNRENGGGGVPGVPGAGGGAAKALADEKALVLGKVMENVGLGALPQYGELLADKQKRGAFLKRAAGGGDAGDDDDAGGCGDAGAGGAVNGRGGGFAPGTEPFPGLFPRKPAPLPSPGLNSAAKRIKVEKDLELPPAALIPSENVYSQWLVGYAASRHFMKDPFLGFTDARQSPFATSSEHSSENGSLRFSTPPGDLLDGGLSGRSGTASGGSTPHLGGPGPGRPSSKEGRRSDTCEYCGKVFKNCSNLTVHRRSHTGERPYKCELCNYACAQSSKLTRHMKTHGQIGKEVYRCDICQMPFSVYSTLEKHMKKWHGEHLLTNDVKIEQAERS	demonstrated herein	–	–	–
BCL11B p.R3S: FLAG-BCL11B p.R3S, patient-derived mutant protein expressed in transfected HEK293T cells (protein, UniProt Q9C0K0 1-894, looked up, variant R3S, FLAG tag, FLAG-BCL11B p.R3S, patient-derived mutant protein expressed in transfected HEK293T cells) B-cell lymphoma/leukemia 11B: MSSRKQGNPQHLSQRELITPEADHVEAAILEEDEGLEIEEPSGLGLMVGGPDPDLLTCGQCQMNFPLGDILVFIEHKRKQCGGSLGACYDKALDKDSPPPSSRSELRKVSEPVEIGIQVTPDEDDHLLSPTKGICPKQENIAGPCRPAQLPAVAPIAASSHPHSSVITSPLRALGALPPCLPLPCCSARPVSGDGTQGEGQTEAPFGCQCQLSGKDEPSSYICTTCKQPFNSAWFLLQHAQNTHGFRIYLEPGPASSSLTPRLTIPPPLGPEAVAQSPLMNFLGDSNPFNLLRMTGPILRDHPGFGEGRLPGTPPLFSPPPRHHLDPHRLSAEEMGLVAQHPSAFDRVMRLNPMAIDSPAMDFSRRLRELAGNSSTPPPVSPGRGNPMHRLLNPFQPSPKSPFLSTPPLPPMPPGGTPPPQPPAKSKSCEFCGKTFKFQSNLIVHRRSHTGEKPYKCQLCDHACSQASKLKRHMKTHMHKAGSLAGRSDDGLSAASSPEPGTSELAGEGLKAADGDFRHHESDPSLGHEPEEEDEEEEEEEEELLLENESRPESSFSMDSELSRNRENGGGGVPGVPGAGGGAAKALADEKALVLGKVMENVGLGALPQYGELLADKQKRGAFLKRAAGGGDAGDDDDAGGCGDAGAGGAVNGRGGGFAPGTEPFPGLFPRKPAPLPSPGLNSAAKRIKVEKDLELPPAALIPSENVYSQWLVGYAASRHFMKDPFLGFTDARQSPFATSSEHSSENGSLRFSTPPGDLLDGGLSGRSGTASGGSTPHLGGPGPGRPSSKEGRRSDTCEYCGKVFKNCSNLTVHRRSHTGERPYKCELCNYACAQSSKLTRHMKTHGQIGKEVYRCDICQMPFSVYSTLEKHMKKWHGEHLLTNDVKIEQAERS	does not interact with the NuRD or PRC2 complexes	does not interact with the NuRD or PRC2 complexes	did not alter interaction of the protein with the class III histone deacetylase SIRT1	well expressed and localized in the nucleus in a manner that was indistinguishable from wild-type protein

Source: article PMC6644156, “A de novo substitution in BCL11B leads to loss of interaction with transcriptional complexes and craniosynostosis” (Human Molecular Genetics, 2019)
